Assay results published in US20210347889A1 (Merck Sharp & Dohme, published 2021).

Target: T1, membrane LAG3 (membrane-bound LAG3 expressed on immune cells) (human, UniProt P18627 23-525)
T1 sequence: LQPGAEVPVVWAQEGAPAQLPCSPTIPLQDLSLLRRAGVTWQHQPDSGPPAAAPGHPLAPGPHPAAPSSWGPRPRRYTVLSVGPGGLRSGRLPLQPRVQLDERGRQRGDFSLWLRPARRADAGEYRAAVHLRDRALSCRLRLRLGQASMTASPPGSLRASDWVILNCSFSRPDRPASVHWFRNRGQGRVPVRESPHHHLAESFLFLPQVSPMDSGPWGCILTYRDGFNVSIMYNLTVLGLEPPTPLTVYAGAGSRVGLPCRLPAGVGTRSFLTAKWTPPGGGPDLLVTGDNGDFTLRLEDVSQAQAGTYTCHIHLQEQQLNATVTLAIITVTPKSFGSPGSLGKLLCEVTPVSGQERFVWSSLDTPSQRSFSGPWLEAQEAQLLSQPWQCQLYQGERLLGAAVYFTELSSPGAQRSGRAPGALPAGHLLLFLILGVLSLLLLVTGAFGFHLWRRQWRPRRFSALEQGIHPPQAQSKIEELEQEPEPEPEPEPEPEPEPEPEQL
Assay: statement in Example 2 (rationale for sLAG3 as target engagement marker); no assay described

B1: anti-LAG3 antibody Ab6 (antibody, human IgG4 S228P, kappa, V domains shown)
VH: QMQLVQSGPEVKKPGTSVKVSCKASGYTFTDYNVDWVRQARGQRLEWIGDINPNDGGTIYAQKFQERVTITVDKSTSTAYMELSSLRSEDTAVYYCARNYRWFGAMDHWGQGTTVTVSS
VL: DIVMTQTPLSLSVTPGQPASISCKASQSLDYEGDSDMNWYLQKPGQPPQLLIYGASNLESGVPDRFSGSGSGTDFTLKISRVEAEDVGVYYCQQSTEDPRTFGGGTKVEIKR
notes: The claims say two heavy and two light chains
- binding result: binds
